Patent US20240368233A1 (University of Washington, published 2024)

T1: 274B53
T1 construct: also called LHD274B DHR53 stop
T1 chain: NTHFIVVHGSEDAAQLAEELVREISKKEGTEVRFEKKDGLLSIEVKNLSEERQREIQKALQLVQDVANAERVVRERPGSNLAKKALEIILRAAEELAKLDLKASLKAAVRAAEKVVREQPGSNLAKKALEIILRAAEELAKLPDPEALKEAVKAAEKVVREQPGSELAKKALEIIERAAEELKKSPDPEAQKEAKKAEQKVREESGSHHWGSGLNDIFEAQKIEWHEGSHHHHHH

T2: LHD274 B62
T2 construct: also called LHD274 B DHR62 C
T2 single chain, LHD274 chain B fused to DHR62: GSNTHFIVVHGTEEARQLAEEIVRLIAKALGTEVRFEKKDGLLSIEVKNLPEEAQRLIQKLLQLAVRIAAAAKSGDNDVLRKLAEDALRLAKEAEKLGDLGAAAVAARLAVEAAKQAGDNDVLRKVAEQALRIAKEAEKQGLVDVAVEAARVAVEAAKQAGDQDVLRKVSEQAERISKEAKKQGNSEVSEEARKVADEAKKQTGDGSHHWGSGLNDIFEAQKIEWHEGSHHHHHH

T3: DF206
T3 construct: Bivalent connector
T3 chain: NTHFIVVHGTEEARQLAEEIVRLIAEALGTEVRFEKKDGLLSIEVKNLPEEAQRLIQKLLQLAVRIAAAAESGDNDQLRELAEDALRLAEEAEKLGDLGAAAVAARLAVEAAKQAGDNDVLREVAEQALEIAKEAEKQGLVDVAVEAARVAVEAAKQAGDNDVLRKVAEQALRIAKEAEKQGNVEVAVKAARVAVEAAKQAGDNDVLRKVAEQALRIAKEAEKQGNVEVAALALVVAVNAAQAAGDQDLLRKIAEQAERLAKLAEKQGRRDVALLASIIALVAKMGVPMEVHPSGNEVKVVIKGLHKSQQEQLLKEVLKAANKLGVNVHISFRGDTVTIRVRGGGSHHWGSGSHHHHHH

T4: DF202
T4 construct: Bivalent connector
T4 chain: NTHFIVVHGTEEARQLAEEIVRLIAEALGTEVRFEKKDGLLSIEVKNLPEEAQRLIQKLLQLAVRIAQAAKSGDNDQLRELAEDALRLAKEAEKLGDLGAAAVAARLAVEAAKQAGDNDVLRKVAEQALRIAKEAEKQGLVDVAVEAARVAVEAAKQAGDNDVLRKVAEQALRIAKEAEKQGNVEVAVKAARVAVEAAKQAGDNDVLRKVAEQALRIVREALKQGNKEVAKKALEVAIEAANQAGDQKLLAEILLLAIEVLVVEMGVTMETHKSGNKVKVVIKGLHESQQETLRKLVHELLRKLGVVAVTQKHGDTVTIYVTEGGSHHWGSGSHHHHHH

T5: DFA-1
T5 construct: Bivalent connector
T5 chain: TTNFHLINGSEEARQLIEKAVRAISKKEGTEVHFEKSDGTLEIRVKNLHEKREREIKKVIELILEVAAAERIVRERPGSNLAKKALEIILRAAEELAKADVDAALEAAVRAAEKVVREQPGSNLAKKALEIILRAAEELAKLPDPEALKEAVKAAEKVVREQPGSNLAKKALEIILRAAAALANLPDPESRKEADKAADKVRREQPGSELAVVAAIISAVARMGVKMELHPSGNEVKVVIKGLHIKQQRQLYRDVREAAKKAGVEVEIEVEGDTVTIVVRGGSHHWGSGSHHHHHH

B1: 274A53 (designed binder)
chain: TTNFHLINGSEEARQLIEKAVRAISKKEGTEVHFEKSDGTLEIRVKNLHEKREREIKKVIELILEVAAAERIVRERPGSNLAKKALEIILRAAEELAKADVDAALEAAVRAAEKVVREQPGSNLAKKALEIILRAAEELAKLPDPEALKEAVKAAEKVVREQPGSELAKKALEIIERAAEELKKSPDPEAQKEAKKAEQKVREESGSHHWGSGLNDIFEAQKIEWHEGSHHHHHH
notes: also called LHD274A DHR53 stop; LHD274A53
B2: 101B62 (designed binder)
chain: HHHHHHGSGLNDIFEAQKIEWHEAENLYFQSGSNDEKRKRAEKALQRAQEAEKKGDVEEAVRAAQEAVRAAKESGDNDVLRKVAEQALRIAKEAEKQGNVEVAVKAARVAVEAAKQAGDNDVLRKVAEQALRIAKEALKQGNVDVAAKAAQVAEEAAKQAGDQDVLRKVKEVQIEIVLAAIELTVRKMGVTMETHRSGREVKVVIKGLHESQQEQLLEDVLRIAELAGVRVRIRFKGDTVTIVVRG
notes: also called LHD101B62

Legend:
[1] = biological target: T1, 274B53; experiment: SEC titration (Superdex 200, normalised A230) of the complexes 274A53/274B53 and 29A53/29B53
[2] = biological target: T2, LHD274 B62; experiment: SEC binding assay (Superdex 200, normalised A230) of A, B and the mixture AB
[3] = biological target: T3, DF206; experiment: SEC of mixed components; trimer listed in Table 6
[4] = biological target: T4, DF202; experiment: SEC of mixed components; trimer listed in Table 6
[5] = biological target: T5, DFA-1; experiment: SEC of mixed components; trimer listed in Table 6

Binder | binding result [1] | binding result [2] | binding result [3] | binding result [4] | binding result [5]
B1 | binds | binds | binds | binds | 
B2 |  |  |  |  | binds
